Results from the supplement of paper PMC10567573.

B1: SLC22A15 (parent)
chain: IAQYALLGYFIRSWRTLAILVNLQ
B2: RSPH3 (parent)
chain: KAASLARNLAKRRRTYLGGAAGRS
B3: HDAC6 (parent)
chain: QYMNEGELRVLADTYDSVYLHPNS

Variants of: B1
Assay: protein stability index of a GFP-peptide fusion (GPS, HEK-293T) (PSI 1-6); higher = more stable
Details: c terminus: a fixed tail appended
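Note: lentivirally expressed fusions sorted by FACS into six bins by GFP to DsRed ratio, PSI derived from sequencing read proportions per bin multiplied by bin number.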

Variant | protein stability index
Y4C | 3.29
Y4W | 2.78
Y4Q | 2.44
Y4P | 4.01
Y4I | 1.57
Y4F | 3.81
Y4N | 4.26
Y4A | 3
Y4E | 3.39
I1V | 2.17
I1N | 4.39
I1P | 1.52
I1D | 2.92
A2R | 3.65
A2K | 2.18
A2P | 4.19
A2S | 2.1
A2G | 2.41
A2V | 2.88
A2E | 2.65
A2T | 3.18
A2M | 3.88
A2F | 1.95
A2I | 3.22

Variant | protein stability index
A2H | 2.48
A2N | 4.69
L7Y | 2.5
L7W | 2.78
L7M | 2.97
L7C | 3.99
L7D | 2.67
L7Q | 2.52
L7N | 3.3
L7I | 1.71
L7S | 3.26
L6E | 2.55
L6I | 3.23
L6K | 2.31
L6Q | 2.46
L6F | 2.34
L6G | 4.36
L6N | 2.26
L6R | 4.15
L6M | 3.42
L6P | 2.95
L6S | 2.22
L6T | 4.1
L6Y | 2.49

Variant | protein stability index
L6H | 1.67
Q3G | 3.38
Q3D | 2.29
Q3V | 4.91
Q3C | 3.46
Q3L | 3.15
Q3H | 2.13
Q3A | 3.14
Q3R | 4.63
Q3K | 1.96
G8K | 1.71
G8E | 1.83
G8C | 2.42
G8H | 2.21
G8I | 3.12
G8L | 1.88
G8F | 2.71
A5G | 3.8
A5R | 2.33
A5I | 2.52
A5S | 2.48
A5K | 2.1
A5E | 1.82

Variants of: B2
Assay: as above
Details: c terminus: a fixed tail appended

Variant | protein stability index
R14E | 2.66
R14L | 1.84
R14Q | 2.57
R14F | 1.02
R14C | 2.96
R14G | 1.73
R14S | 3.11
R14V | 2.24
R14N | 1.99
R14D | 1.41
Y16M | 2.26
Y16F | 3.2
Y16P | 3.04
Y16G | 3.03
Y16E | 1.86
Y16A | 3.41
Y16K | 2.49
Y16L | 2.29
Y16V | 2.17
Y16Q | 2.81
Y16H | 3.32
A6Y | 1.94
A6G | 3.27
A6W | 1.58

Variant | protein stability index
A6M | 2.52
A6F | 2.23
A6H | 2.2
A6P | 3.94
A6K | 2.4
A6S | 3.07
A6R | 2.56
A6C | 1.06
G18M | 2.5
G18I | 2.86
G18E | 2.45
G18L | 2.32
G18A | 2.25
G18Y | 3.11
G18K | 2.35
G18S | 1.69
G18V | 2.36
G18T | 1.97
G18F | 1.78
G18H | 3.07
R23V | 2.15
R23H | 2.37
R23M | 2
R23G | 1.85

Variant | protein stability index
R23W | 1.61
R23P | 2.83
R23K | 2.14
R23L | 1.83
R23D | 2.61
R23C | 1.99
R23I | 1.59
R23F | 1.63
R23Q | 1.23
A20M | 2.42
A20G | 3.39
A20E | 2.45
A20T | 2.35
A20D | 3.98
A20H | 2.59
A20R | 2.98
A20S | 1.72
A20W | 2.48
A20V | 2.6
G22H | 1.44
G22W | 1.44
G22Y | 2
G22L | 2.42
G22K | 2.05

Variant | protein stability index
G22N | 3.29
G22D | 2.03
G22F | 2.17
N8K | 2.52
N8D | 3.23
N8S | 2.88
N8G | 3.98
N8Q | 1.35
N8Y | 3.42
N8L | 2.26
N8F | 2.33
R7N | 3.59
R7L | 2.51
R7G | 2.54
R7D | 3.83
R7S | 2.58
R7T | 2.08
R7E | 4.36
R7V | 1.98
L17K | 4.17
L17M | 2.64
L17G | 2.66
L17H | 3.26
L17E | 2.32

Variant | protein stability index
L17W | 1.69
L17Y | 3.3
L17R | 3.44
L17S | 2.75
L17F | 2.05
L17N | 3.18
S24D | 3.31
S24E | 2.01
S24L | 2.04
S24Q | 3.37
S24F | 1.94
S24R | 2.32
S24H | 2.41
S24K | 2
S24N | 1.85
S24A | 2.7
S24M | 2.2
S24I | 3.4
S24C | 2.11
S24P | 1.83
S4I | 1.83
S4Y | 1.48
S4N | 3.2
S4G | 3.32

Variant | protein stability index
S4Q | 2.36
S4E | 1.99
S4V | 2.36
S4D | 3.47
S4R | 2.82
S4C | 1.98
S4H | 2.32
S4A | 1.89
S4W | 1.89
K11F | 1.92
K11N | 2.36
K11I | 2.78
K11R | 2.91
K11G | 2.49
K11P | 2.89
K11Q | 1.98
K11A | 1.64
K11W | 1.71
K11T | 1.56
A21I | 1.91
A21R | 1.71
A21V | 2.25
A21D | 2.69
A21K | 3.2

Variant | protein stability index
A21P | 2.68
A21E | 3.14
A21W | 1.7
K1H | 2.49
K1A | 1.98
K1C | 1.87
K1F | 1.47
K1G | 3.77
K1T | 2.98
K1W | 2.29
R13S | 2.52
R13F | 3.92
R13M | 3.77
R13A | 1.51
R13N | 3.36
R13D | 3.58
R13W | 2.91
R13G | 2.11
R13T | 2.4
R13V | 1.92
R12H | 2.41
R12K | 2.9
R12G | 2.75
R12Y | 1.18

Variant | protein stability index
R12Q | 2.24
R12N | 2.4
R12C | 2.46
R12F | 1.68
R12I | 2.24
L5M | 2.33
L5I | 2.58
L5D | 4.65
L5F | 2.56
L5V | 4.21
L5Q | 4.14
L5A | 4.18
L5W | 2.58
L5T | 3.96
L5C | 2.89
L5G | 4.8
A3H | 3.48
A3F | 1.01
A3P | 3.96
A3Y | 1.74
A3N | 2.69
A3Q | 3.71
A3K | 2.68
A3D | 3.02

Variant | protein stability index
A3G | 3.72
A3E | 3.16
A3R | 3.01
L9K | 4.94
L9F | 2.44
L9P | 3.94
L9A | 3.41
L9E | 4.34
L9R | 4.9
L9N | 4.46
L9W | 2.38
T15Y | 1.29
T15M | 3.14
T15F | 2.31
T15V | 1.91
T15D | 2.17
T15H | 2.09
G19T | 2.38
G19W | 1.67
G19R | 2.93
G19S | 3.14
G19F | 2.03
G19H | 2.59
G19P | 1.46

Variant | protein stability index
G19I | 1.87
G19N | 2.68
G19C | 1.97
G19E | 2.13
G19A | 2.32
G19Q | 3.22
A10H | 3.15
A10C | 1.98
A10D | 3.14
A10S | 2.91
A10G | 4.07
A10F | 1.29
A10V | 2.43
A10T | 3.17
A10N | 2.64
A2R | 3.91
A2N | 3.47
A2F | 2.08
A2Q | 3.13
A2T | 3.68
A2I | 1.71
A2S | 3.04
A2G | 3
A2E | 3.41

Variants of: B3
Assay: as above
Details: c terminus: a fixed tail appended

Variant | protein stability index
S24V | 1.74
S24D | 2.58
S24M | 1.57
S24P | 1.91
S24L | 1.52
S24K | 1.46
S24A | 1.44
S24W | 1.24
S24Q | 3.76
S24Y | 1.41
S24G | 2.24
S24R | 2.4
S24F | 1.58
S24E | 1.73
S24T | 1.52
S24N | 2.04
S24C | 1.64
S24I | 3.21
S24H | 1.61
N23T | 2.03
N23V | 2.03
N23Y | 1.73
N23W | 1.46
